The target in the assay is His-tagged MDM2 (Homo sapiens, UniProt Q00987). The assay can be described thus: competitive fluorescence polarization binding assay.

pKd: −log10 of the molar value.

Turning to “HBS 3: negative control of 2, Phe-19 and Leu-26 mutated to alanine (EAASDLWKLAPENNV)”, the negative logarithm of the Kd (pKd) (read-out: KD, binding affinity for MDM2, competitive fluorescence polarization assay, His-tagged MDM2) was under 3.90. As for `CC(C)C[C@H](NC(=O)[C@H](CC(=O)O)NC(=O)[C@H](CO)NC(=O)[C@H](Cc1ccccc1)N1C/C=C/CCC(=O)N[C@@H](CCC(=O)O)C(=O)N[C@@H](C)C1=O)C(=O)N[C@@H](Cc1c[nH]c2ccccc12)C(=O)N[C@@H](CCCCN)C(=O)N[C@@H](CC(C)C)C(=O)N[C@@H](CC(C)C)C(=O)N1CCC[C@H]1C(=O)N[C@@H](CCC(=O)O)C(=O)N[C@@H](CC(N)=O)C(=O)N[C@@H](CC(N)=O)C(=O)N[C@H](C(N)=O)C(C)C` [HBS 2], under “fluorescence polarization assay, compared with unconstrained peptide 1”, the “fold lower affinity for MDM2 relative to peptide 1” value is “seven-fold lower affinity”.

The values are drawn from article PMC3017812 (Chembiochem : a European journal of chemical biology, 2010).
